From paper PMC4598080

T1: Rpl5 (uL18) (S. cerevisiae (endogenous in yeast cells)) (UniProt P26321)
T1 sequence: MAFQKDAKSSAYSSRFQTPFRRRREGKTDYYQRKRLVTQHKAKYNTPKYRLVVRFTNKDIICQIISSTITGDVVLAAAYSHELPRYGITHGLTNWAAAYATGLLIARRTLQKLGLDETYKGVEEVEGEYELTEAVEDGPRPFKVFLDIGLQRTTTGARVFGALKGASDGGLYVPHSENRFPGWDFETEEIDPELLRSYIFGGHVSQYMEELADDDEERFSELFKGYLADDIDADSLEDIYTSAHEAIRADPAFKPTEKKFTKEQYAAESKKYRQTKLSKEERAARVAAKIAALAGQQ


How the values were obtained:
[1] = target: T1, Rpl5 (uL18) (S. cerevisiae (endogenous in yeast cells))
[2] = target: Rpl4 (uL4), non-ribosome bound (S. cerevisiae (endogenous in yeast cells)) (UniProt P10664)
Sequence of UniProt P10664 (P10664 whole entry): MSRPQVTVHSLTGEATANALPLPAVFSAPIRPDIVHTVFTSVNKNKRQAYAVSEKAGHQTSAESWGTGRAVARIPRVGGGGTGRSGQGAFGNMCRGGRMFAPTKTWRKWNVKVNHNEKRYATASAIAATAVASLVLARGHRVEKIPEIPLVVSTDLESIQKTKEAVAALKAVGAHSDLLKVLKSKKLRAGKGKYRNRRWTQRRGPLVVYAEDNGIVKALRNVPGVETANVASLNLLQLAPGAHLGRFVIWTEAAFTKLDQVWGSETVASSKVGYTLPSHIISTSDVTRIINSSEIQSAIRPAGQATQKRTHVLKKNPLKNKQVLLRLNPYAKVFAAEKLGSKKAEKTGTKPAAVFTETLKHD

Row | enrichment of the RPL5 mRNA, compared to the non-specific r-protein mRNAs, in the Syo1-FTpA IgG-Sepharose purification from extracts of cycloheximide-treated cells (real-time qRT-PCR) [1] [fold] | enrichment of the RPL4 mRNA, compared to the non-specific r-protein mRNAs, in the Acl4-TAP IgG-Sepharose purification from extracts of cycloheximide-treated cells (real-time qRT-PCR) [2] [fold] | Binder
1 | 150 |  | Syo1-FTpA (natural protein) MGRSKKRSRASSSRLNPLRKAGSNDNNKDTNVVNKKLQPLLQNLSSVVPNDRSIALSSISVLCEDAHMRQLLLKEKLVPIILNKLLNDSNSDIVVESFGLLRNLSLEEGYDVSIYLWRSDIWTSITSNFGRIVESLSALQAAEQQPQLKPAGKSKIESKRLLFDFADNLLSLVVALSNGSDDILNEILTESKINEIFQVISQLLKYGVEKLPINLFNTTLDLIYDLSSESFEFIDHVSNNELLSQFLNGLSPALHPQANELTKVLIEGIHCQFLDMKITYDQCNKMIHSVCHSINNIDPVQLVNDINNPVEIGPATSKDESSKVITKIKDYNAKRNESMIKLQSIEIAIDLITAIIEIVASKYESPESQEVAIPEELINTLTNFLPHVFMILKDTFTSRILIGWNNLIWLFVSLSLTELSGELLTTLWSYVTQLDSQDDLSIKIGRMGCIWALLKLIFPDGAFESENRALINVQMLNNSGFARGIIEEFQNNNDLELQQKCINVLSTYAMIQGQIDANKEIGQFFIQTLTQLNVRPEILIEMTNSLFQIYGDASYDYNEPIFVRGGFLSILKDQVVPNLRQQFKMVDKNKNPELKERCHDCFTTLDSFIHYKMNENSTNQ
2 |  | 150 | C-terminally TAP-tagged Acl4 (natural protein) MSELEATIRQAKEALAENNAKKALKILKPFKSSLKKENANNVILNEVFADAYLDNGQVEKAYPILARACELDPEGQVGGPDKFFTMGQIMGGQDGVSIITRGIMNISNTGGEMLTNVQVEKIVGGLLSVIEIWMTDLCMEPNAEEQCEELIQKAMELTEGKSPETWSTLGSIKISQQKFGEAYEAFSQAWNFFELKKQEIGSGINENGDTTQKAGLQSEYVDLLQPLLSLTKMCLEVGAYEVALKVIAAVRDIDEDNIEGYYLEGFTYYLMSKLEIFKLNNPEVSLRPENIYEFNQLIQEVPLDLSHEPISQLIYDSRLALSFALQAGVNADSKDEIVQELLGGANALLQEIGGPLDPSELTQIKKGDLVNENEDLEELDIEEEYSD
